# In CN112409479A (INST FOR VIRAL DISEASE CONTROL AND PREVENTION CHINESE …, dated 2021):
# B1: 人源抗新冠病毒中和性抗体nCoV-121 全抗体IgG (antibody)
# light: NFMLTQPHSVSESPGKTVTISCTRSSGSIASNYVQWYQQRPGSSPTTVIYEDNQRPSGVPDRFSGSIDSSSNSASLTISGLKTEDEADYYCQSYDSSNQWVFGGGTKLTVLGQPKAAPSVTLGQPKAAPSVTLFPPSSEELQANKATLVCLISDFYPGAVTVAWKADSSPVKAGVETTTPSKQSNNKYAASSYLSLTPEQWKSHRSYSCQVTHEGSTVEKTVAPTECS
# heavy: not shown
# Biological target: T1, 新型冠状病毒S1蛋白 (纯化) (SARS-CoV-2, UniProt P0DTC2 14-685)
# T1 construct: domain: S1
# Assay: ELISA, purified IgG on coated S1 protein
binder,measurement,value
B1,dilution still ELISA-positive,≥ 64000 fold dilution from 0.2mg/ml
